US20210380703A1 (RIGEL PHARMACEUTICALS, published 2021)

B1: 374_F03 (antibody, V domains shown)
VH: EVQLLESGGGLVQPGGSLRLSCAASGFTFSSYGMNWVRQAPGKGLEWVASINYNGGYTSYADSVKGRFTISRDNSKNTLYLQMNSLRAEDTAVYYCARAANWHDTHLDYWGQGTLVTVSS
VL: DIQMTQSPSSLSASVGDRVTITCRASQSIISYVNWYQQKPGKAPKLVIYAATSRASGVPSRFSGSGSGTDFTLTISSLQPEDFATYYCQQSYDTPLTFGGGTKVEIK
notes: Group I
B2: 374_H02 (antibody, V domains shown)
VH: EVQLLESGGGLVQPGGSLRLSCAASGFTFSSYGMHWVRQAPGKGLEWVASINYNGGYTSYADSVKGRFTISRDNSKNTLYLQMNSLRAEDTAVYYCARAATWHDTHLDYWGQGTLVTVSS
VL: DIQMTQSPSSLSASVGDRVTITCRASQSILSYVNWYQQKPGKAPKLLIYAATSLASGVPSRFSGSGSGTDFTLTISSLQPEDFATYYCQQSYDTPLTFGGGTKVEIK
notes: Group II
B3: 375_C03 (antibody, V domains shown)
VH: EVQLLESGGGLVQPGGSLRLSCAASGFTFDSYSMHWVRQAPGKGLEWVSGINYNGGYTSYADSVKGRFTISRDNSKNTLYLQMNSLRAEDTAVYYCARAATWHDTHLDYWGQGTLVTVSS
VL: DIQMTQSPSSLSASVGDRVTITCRASQSILSYVNWYQQKPGKAPKLVIYAATSRASGVPSRFSGSGSGTDFTLTISSLQPEDFATYYCQQSYESPLTFGGGTKVEIK
notes: Group II
B4: 375_C10 (antibody, V domains shown)
VH: EVQLLESGGGLVQPGGSLRLSCAASGFTFSSYGMHWVRQAPGKGLEWVASINYNGGYTSYADSVKGRFTISRDNSKNTLYLQMNSLRAEDTAVYYCARAANWHDTALDYWGQGTLVTVSS
VL: not shown
notes: Group I
B5: 375_D02 (antibody, V domains shown)
VH: EVQLLESGGGLVQPGGSLRLSCAASGFTFSSYSMNWVRQAPGKGLEWVSNINYNGGYTSYADSVKGRFTISRDNSKNTLYLQMNSLRAEDTAVYYCARAATWHDTHLDYWGQGTLVTVSS
VL: DIQMTQSPSSLSASVGDRVTITCRASQSILTYLNWYQQKPGKAPKLLIYAASSLQSGVPSRFSGSGSGTDFTLTISSLQPEDFATYYCQQSYELPLTFGGGTKVEIK
notes: Group II
B6: 375_F12 (antibody, V domains shown)
VH: EVQLLESGGGLVQPGGSLRLSCAASGFTFDSYGMHWVRQAPGKGLEWVASINYNGGYTSYADSVKGRFTISRDNSKNTLYLQMNSLRAEDTAVYYCARAANWHDTALDYWGQGTLVTVSS
VL: DIQMTQSPSSLSASVGDRVTITCRASQSILTYLNWYQQKPGKAPKLVIYAATSRASGVPSRFSGSGSGTDFTLTISSLQPEDFATYYCQQSDELPLTFGGGTKVEIK
notes: Group I
B7: 375_G08 (antibody, V domains shown)
VH: EVQLLESGGGLVQPGGSLRLSCAASGFTFSSYGMHWVRQAPGKGLEWVSGINYNGGYTSYADSVKGRFTISRDNSKNTLYLQMNSLRAEDTAVYYCARAATWHDTHLDYWGQGTLVTVSS
VL: DIQMTQSPSSLSASVGDRVTITCRASQSISSYVNWYQQKPGKAPKLLIYAVTSRASGVPSRFSGSGSGTDFTLTISSLQPEDFATYYCQQSYSTPLTFGGGTKVEIK
notes: Group II
B8: 375_H01 (antibody, V domains shown)
VH: EVQLLESGGGLVQPGGSLRLSCAASGFTFSDYSMNWVRQAPGKGLEWVAGINYNSGYTSYADSVKGRFTISRDNSKNTLYLQMNSLRAEDTAVYYCARAANWHDTHLDYWGQGTLVTVSS
VL: DIQMTQSPSSLSASVGDRVTITCRASQSILTYLNWYQQKPGKAPKLLIYAATSRHSGVPSRFSGSGSGTDFTLTISSLQPEDFATYYCQQSYSNPLTFGGGTKVEIK
notes: Group I
B9: 375_H04 (antibody, V domains shown)
VH: EVQLLESGGGLVQPGGSLRLSCAASGFTFSSYGMHWVRQAPGKGLEWVAGINYNSGYTGYADSVKGRFTISRDNSKNTLYLQMNSLRAEDTAVYYCARAATWHDTHLDYWGQGTLVTVSS
VL: DIQMTQSPSSLSASVGDRVTITCRASQSILSYLNWYQQKPGKAPKLVIYAATSRASGVPSRFSGSGSGTDFTLTISSLQPEDFATYYCQQSYSNPLTFGGGTKVEIK
notes: Group II
B10: 376_F09 (antibody, V domains shown)
VH: EVQLLESGGGLVQPGGSLRLSCAASGFTFDSYSMHWVRQAPGKGLEWVSSINYNGGYKSYADSVKGRFTISRDNSKNTLYLQMNSLRAEDTAVYYCARAATWHDTHLDYWGQGTLVTVSS
VL: DIQMTQSPSSLSASVGDRVTITCRASQSILTYVNWYQQKPGKAPKLLIYAVTSRASGVPSRFSGSGSGTDFTLTISSLQPEDFATYYCQQSYDTPLTFGGGTKVEIK
notes: Group II
B11: 376_G02 (antibody, V domains shown)
VH: EVQLLESGGGLVQPGGSLRLSCAASGFTFSDYGMNWVRQAPGKGLEWVSGINYNGGYTSYADSVKGRFTISRDNSKNTLYLQMNSLRAEDTAVYYCARAANWHDTALDYWGQGTLVTVSS
VL: DIQMTQSPSSLSASVGDRVTITCRASQSISRYLNWYQQKPGKAPKLVIYAATSLASGVPSRFSGSGSGTDFTLTISSLQPEDFATYYCQQSYDNPLTFGGGTKVEIK
notes: Group I
B12: 376_H12 (antibody, V domains shown)
VH: EVQLLESGGGLVQPGGSLRLSCAASGFTFSDYGMHWVRQAPGKGLEWVASINYNGGYTSYADSVKGRFTISRDNSKNTLYLQMNSLRAEDTAVYYCARAATWHDTHLDYWGQGTLVTVSS
VL: DIQMTQSPSSLSASVGDRVTITCRASQSIITYLNWYQQKPGKAPKLVIYAATSRASGVPSRFSGSGSGTDFTLTISSLQPEDFATYYCQQSYESPLTFGGGTKVEIK
notes: Group II
B13: 365_B10 (antibody, V domains shown)
VH: EVQLLESGGGLVQPGGSLRLSCAASGFTFDDYSMHWVRQAPGKGLEWVASINYNSGYKGYADSVKGRFTISRDNSKNTLYLQMNSLRAEDTAVYYCARAANWHDTALDYWGQGTLVTVSS
VL: DIQMTQSPSSLSASVGDRVTITCRASQSILRYLNWYQQKPGKAPKLLIYAATSRASGVPSRFSGSGSGTDFTLTISSLQPEDFATYYCQQSDNLPLTFGGGTKVEIK
notes: Group I
B14: 371_D07 (antibody, V domains shown)
VH: EVQLLESGGGLVQPGGSLRLSCAASGFTFDDYGMNWVRQAPGKGLEWVANINYNGGYKGYADSVKGRFTISRDNSKNTLYLQMNSLRAEDTAVYYCARAANWHDTHLDYWGQGTLVTVSS
VL: DIQMTQSPSSLSASVGDRVTITCRASQSILTYLNWYQQKPGKAPKLVIYAATSRASGVPSRFSGSGSGTDFTLTISSLQPEDFATYYCQQSYELPLTFGGGTKVEIK
notes: Group I
B15: 375_A04 (antibody, V domains shown)
VH: EVQLLESGGGLVQPGGSLRLSCAASGFTFDSYGMNWVRQAPGKGLEWVAGINYNGGYKSYADSVKGRFTISRDNSKNTLYLQMNSLRAEDTAVYYCARAANWHDTALDYWGQGTLVTVSS
VL: DIQMTQSPSSLSASVGDRVTITCRASQSILTYLNWYQQKPGKAPKLVIYYVNNLPSGVPSRFSGSGSGTDFTLTISSLQPEDFATYYCQQSYNSPLTFGGGTKVEIK
notes: Group I
B16: 375_A11 (antibody, V domains shown)
VH: EVQLLESGGGLVQPGGSLRLSCAASGFTFSDYGMHWVRQAPGKGLEWVSSINYNSGYKSYADSVKGRFTISRDNSKNTLYLQMNSLRAEDTAVYYCARAANWHDTALDYWGQGTLVTVSS
VL: DIQMTQSPSSLSASVGDRVTITCRASQSIVSYLNWYQQKPGKAPKLLIYYVTNLASGVPSRFSGSGSGTDFTLTISSLQPEDFATYYCQQSYDNPLTFGGGTKVEIK
notes: Group I
B17: 376_D08 (antibody, V domains shown)
VH: EVQLLESGGGLVQPGGSLRLSCAASGFTFDSYGMNWVRQAPGKGLEWVANINYNSGYKSYADSVKGRFTISRDNSKNTLYLQMNSLRAEDTAVYYCARAATWHDTALDYWGQGTLVTVSS
VL: DIQMTQSPSSLSASVGDRVTITCRASQSILTYLNWYQQKPGKAPKLVIYYANNRPSGVPSRFSGSGSGTDFTLTISSLQPEDFATYYCQQSYSNPLTFGGGTKVEIK
notes: Group II
B18: 365_E10 (antibody, V domains shown)
VH: EVQLLESGGGLVQPGGSLRLSCAASGFTFDSYSMNWVRQAPGKGLEWVSSINYNSGYKGYADSVKGRFTISRDNSKNTLYLQMNSLRAEDTAVYYCARGANWHDTHLDYWGQGTLVTVSS
VL: not shown
notes: Group III
B19: 366_A06 (antibody, V domains shown)
VH: EVQLLESGGGLVQPGGSLRLSCAASGFTFSDYSMNWVRQAPGKGLEWVASINYNGGYKSYADSVKGRFTISRDNSKNTLYLQMNSLRAEDTAVYYCARGANWHDTHLDYWGQGTLVTVSS
VL: not shown
notes: Group III
B20: 366_A08 (antibody, V domains shown)
VH: EVQLLESGGGLVQPGGSLRLSCAASGFTFDDYSMNWVRQAPGKGLEWVSGINYNSGYKGYADSVKGRFTISRDNSKNTLYLQMNSLRAEDTAVYYCARGANWHDTHLDYWGQGTLVTVSS
VL: DIQMTQSPSSLSASVGDRVTITCRASQSIVSYVNWYQQKPGKAPKLVIYAATSRASGVPSRFSGSGSGTDFTLTISSLQPEDFATYYCQQSYNSPLTFGGGTKVEIK
notes: Group III

Key:
[1] = target: T1, biotinylated goat anti-human kappa light chain; assay: ELISA, positive control
T1 construct: positive control of the ELISA
Procedure, shortened: (§1)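 Monoclonal antibodies were first applied to human or mouse ACVR2A, alongside biotinylated goat anti-human kappa light chain (positive control) and human Fc (negative control); binding was then determined by ELISA.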

mouse ACVR2A = mouse ACVR2A (mouse, UniProt P27038 20-135, limits assumed); assay: ELISA
Procedure, shortened: as §1

human ACVR2A = target: T2, human ACVR2A (human, UniProt P27037 20-135, limits assumed); assay: ELISA
T2 construct: also called activin receptor, type II A
Procedure, shortened: as §1
Further: test concentration or dose not given here.

T2 sequence (P27037 20-135 limits assumed): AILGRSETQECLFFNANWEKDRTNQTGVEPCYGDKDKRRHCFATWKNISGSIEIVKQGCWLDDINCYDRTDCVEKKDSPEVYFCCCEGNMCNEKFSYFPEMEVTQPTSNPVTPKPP
Chain of mouse ACVR2A (P27038 20-135 limits assumed): as the sequence (P27037 20-135 limits assumed) above, with K20R, V73I counted along it

Row | Binder | optical density [1] | optical density (mouse ACVR2A) | optical density (human ACVR2A)
1 | B1 | 3.23 OD | 3.62 OD | 3.53 OD
2 | B2 | 3.18 OD | 3.26 OD | 3.26 OD
3 | B3 | 3.16 OD | 3.24 OD | 3 OD
4 | B4 | 3.33 OD | 3.6 OD | 3.46 OD
5 | B5 | 3.2 OD | 3.56 OD | 3.63 OD
6 | B6 | 3.17 OD | 3.14 OD | 2.95 OD
7 | B7 | 3.27 OD | 3.43 OD | 3.33 OD
8 | B8 | 3.1 OD | 3.06 OD | 2.79 OD
9 | B9 | 3.15 OD | 3.16 OD | 3.11 OD
10 | B10 | 3.35 OD | 3.59 OD | 3.5 OD
11 | B11 | 3.55 OD | 3.7 OD | 3.69 OD
12 | B12 | 3.49 OD | 3.08 OD | 3.23 OD
13 | B13 | 3.21 OD | 2.78 OD | 2.82 OD
14 | B14 | 3.59 OD | 2.9 OD | 2.66 OD
15 | B15 | 3.1 OD | 3.73 OD | 3.72 OD
16 | B16 | 3.05 OD | 3.7 OD | 3.73 OD
17 | B17 | 3.47 OD | 3.71 OD | 3.81 OD
18 | B18 | 3.34 OD | 2.05 OD | 1.82 OD
19 | B19 | 3.24 OD | 2.25 OD | 1.97 OD
20 | B20 | 3.23 OD | 1.73 OD | 1.65 OD
